This note sets out measurements from US12018066 (TRIAD NATIONAL SECURITY, dated 2024).

Assay [1] deals with T1, SARS-CoV spike protein receptor binding domain (RBD1) (SARS-CoV, UniProt P59594 306-527). Description: ELISA, crude human minibody. In general terms: An ELISA detects its analyte on a solid surface through an enzyme-linked reagent.
Assay [2] deals with T1, SARS-CoV spike protein receptor binding …. Description: ELISA, crude rabbit minibody.

B1: E01 human minibody (scFv-human Fc) (Fc fusion)
chain: SYELTQPPSVSVAPGETARITCGGDNIGRRHVHWYQQKPGQAPVLVIYDDSDRPSGIPDRFSGSNSGNTATLTIGRVEAGDEADYYCQVWGSSNDPHVFGTGTKLTVLSGGSTITSNNVYYTKLSSSGTQVQLQQWGAGLLKPSETLSLKCAVYGGSFSGYYWGWIRQSTGKGLEWIGEINRSGSTNYNPSLKSRVTISVDTSKNQFSLKLSSVTAADTAVYYCARGGARYYYGSGSYRSTPRPYYFDYWGQGTLVTVSS
For the molecule B1, the binding result in assay [1] was “no binding”.

B2: B04 rabbit minibody (scFv-rabbit Fc) (Fc fusion)
scFv-Fc: SYVLTQPPSVSVAPGKTARITCGGNNIGIRSVHWYQQKPGQAPVLVIYYDSDRPSGIPERFSGSKSGNTATLTISRVEAGDEADYYCQVWDSSSDHPVFGGGTKLTVLSGGSTITSYNVYYTKLSSSGTQVQLVESGAEVKKPGASVKVSCKASGYTFTRYYMHWVRQAPGQGLEWMGIINPSGGTTSYAQKFQGRVTMTRDTSTSTVYMELSSLRSEDTAVYYCARSFGELTSFDYWGQGTLVTVSS
As to B2, the binding result in assay [2] was “no binding”.

B3: D10 rabbit minibody (scFv-rabbit Fc) (Fc fusion)
scFv-Fc: QSVVTQPPSASGSPGQTVTISCSGNSANIGGNPVNWYQQLPGTAPKLLIYSNNQRPSGVPDRFSGSKSGISASLAISGLQSEDEADYYCAAWDDSLNGVIFGGGTKLTVLSGGSTITSYNVYYTKLSSSGTQVQLVQSGAEVKKPGESLKISCKGSGYSFTSYWIGWVRQMPGKGLEWMGIIYPGDSDTRYSPSFQGQVTISADKSISTAYLQWSSLKASDTAMYYCARRHSGSYSGAFDIWGQGTMVTVSS
Turning to B3, the binding result in assay [2] is reported as “no binding”.

B4: D11 human minibody (scFv-human Fc) (Fc fusion)
scFv-Fc: SYELTQPPSVSVAPGQTARITCGGNNIGSKSVHWYQQKPGQAPVLVVYDDSDRPSGIPERFSGSNSGNTATLTISGTQAMDEADYYCQAWDSSTAYVFGSGTKLTVLSGGSTITSYNVYYTKLSSSGTQVQLEESGGGLVQPGGSLRLSCAASGFTFSNYAMSWVRQAPGKGLEWVSAISGSGGATFHADSVKGRFTISRDNSKNTLYLQMNSLRAEDTAVYYCARRVGYDSSGYYWSDAFDIWGQGTMVTVSS
As to B4, the binding result in assay [1] is “no binding”.

B5: D11 rabbit minibody (scFv-rabbit Fc) (Fc fusion)
scFv-Fc: SYELTQPPSVSVAPGQTARITCGGNNIGSKSVHWYQQKPGQAPVLVVYDDSDRPSGIPERFSGSNSGNTATLTISGTQAMDEADYYCQAWDSSTAYVFGSGTKLTVLSGGSTITSYNVYYTKLSSSGTQVQLEESGGGLVQPGGSLRLSCAASGFTFSNYAMSWVRQAPGKGLEWVSAISGSGGATFHADSVKGRFTISRDNSKNTLYLQMNSLRAEDTAVYYCARRVGYDSSGYYWSDAFDIWGQGTMVTVSS
On to B5, for which the binding result in assay [2] is reported as “no binding”.

B6: D04 rabbit minibody (scFv-rabbit Fc) (Fc fusion)
scFv-Fc: SYVLTQPPSVSVAPGKTARITCGGNNIGWKSVHWYQQKPGQAPVLVVYNDNDRPSGVPERFSGSNSGNTATLTISRVVAGDEADYYCQVWDSSSDHVLFGGGTKLTVLSGGSTITSYNVYYTKLSSSGTQVQLVQSGAEVKKPGSSVKVSCKASGGTFSSYAISWVRQAPGQGLEWMGGIIPIFGTANYAQKFQGRVTITADESTSTAYMELSSLRSEDTAVYYCARASGRWLQFWHYYGMDVWGQGTTVTVS
As for B6, in assay [2], the binding result is recorded as “no binding”.

B7: H02 human minibody (scFv-human Fc) (Fc fusion)
scFv-Fc: QSVVTQPPSVSAAPGQKVTISCSGSSSNIGNNYVSWYQQLPGTAPKLLIYRDTQRPSGVPDRFSGSKSGTSASLAISGLRSEDEADYYCATWDKSLSGPVFGGGTKVTVLSGGSTITSYNVYYTKLSSSGTQVQLQQSGPGLVKPSQTLSLTCAISGDSVSSNSAAWNWIRQSPSRGLEWLGRTYYRSKWYNDYAVSVKSRIIINPDTSKNQFSLQLNSVTPEDTAVYYCARQDNNPYYGLDVWGQGTTVTVSS
For the molecule B7, the binding result in assay [1] is “no binding”.

B8: H02 rabbit minibody (scFv-rabbit Fc) (Fc fusion)
scFv-Fc: QSVVTQPPSVSAAPGQKVTISCSGSSSNIGNNYVSWYQQLPGTAPKLLIYRDTQRPSGVPDRFSGSKSGTSASLAISGLRSEDEADYYCATWDKSLSGPVFGGGTKVTVLSGGSTITSYNVYYTKLSSSGTQVQLQQSGPGLVKPSQTLSLTCAISGDSVSSNSAAWNWIRQSPSRGLEWLGRTYYRSKWYNDYAVSVKSRIIINPDTSKNQFSLQLNSVTPEDTAVYYCARQDNNPYYGLDVWGQGTTVTVSS
With B8, the binding result in assay [2] is recorded as “no binding”.

B9: H05 human minibody (scFv-human Fc) (Fc fusion)
scFv-Fc: SYVLTQPPSVSVAPGQTARITCGANNIGRISVHWYQQKPGQAPVLVVYDDSDRPSGIPERFSGSNFGNTATLTISRVEAGDEADYYCQVWDSYSDHVIFGGGTKLTVLSGGSTITSYNVYYTKLSSSGTQVQLVQSGAEVKKPGSSVKVSCKASGGTFSSYAISWVRQAPGQGLEWMGGIIPIFGTANYAQKFQGRVTITADESTSTAYMELSSLRSEDTAVYYCARSIFGVVIISHADGYYYGMDVWGQGTTVTVSS
In the case of B9, the binding result in assay [1] was “no binding”.

B10: H05 rabbit minibody (scFv-rabbit Fc) (Fc fusion)
scFv-Fc: SYVLTQPPSVSVAPGQTARITCGANNIGRISVHWYQQKPGQAPVLVVYDDSDRPSGIPERFSGSNFGNTATLTISRVEAGDEADYYCQVWDSYSDHVIFGGGTKLTVLSGGSTITSYNVYYTKLSSSGTQVQLVQSGAEVKKPGSSVKVSCKASGGTFSSYAISWVRQAPGQGLEWMGGIIPIFGTANYAQKFQGRVTITADESTSTAYMELSSLRSEDTAVYYCARSIFGVVIISHADGYYYGMDVWGQGTTVTVSS
For the molecule B10, in assay [2], the binding result is reported as “no binding”.

B11: E08 rabbit minibody (scFv-rabbit Fc) (Fc fusion)
scFv-Fc: SYVLTQPPSVSVAPGKTARITCGGNNIGWKSVHWYQQKPGQAPVLVVYDDSDRPSGIPERFSGSNSGNTATLTISRVEAGDEADYYCQVWDSSSDLVVFGGGTKLTVLSGGSTITSYNVYYTKLSSSGTQVQLVQSGAEVKKPGSSVKVSCKASGGTFSSYAISWVRQAPGQGLEWMGGIIPIFGTANYAQKFQGRVTITADESTSTAYMELSSLRSEDTAVYYCARASGRWLQFWHYYGMDVWGQGTTVTVSS
With B11, the binding result in assay [2] is given as “binds”.

B12: R26 human minibody (scFv-human Fc) (Fc fusion)
scFv-Fc: SYELTQPPSVSVAPGQTATITCGGKNIESKSVHWYQQKPGQAPVLVVSDDTDRASGIPERFSGSNSGGAATLTISRVEAGDEADYYCQVWDSPSDHYVFGPGTKLTVLSGGSTITSYNVYYTKLSSSGTQVQLVESGGGVVQPGRSLRLSCAASGFTFSSYAMHWVRQAPGKGLEWVAVISYDGSNKYYADSVKGRFTISRDKAKNTLYLQMNSLRGEDTAVYYCARELSYYDSSGYLRGDWYFDLWGRGTLVTVSS
As for B12, in assay [1], the binding result is on record as “no binding”.

B13: B10 rabbit minibody (scFv-rabbit Fc) (Fc fusion)
scFv-Fc: QSVVTQPPSVSGAPGQRVTISCTGSSSNIGSRTVNWYQQLPGTAPKLLIYANNQRPSGVPDRFSGSKSGTSASLAISGLQSEDEADYYCAAWDDSLNGYVFGTGTKLTVLSGGSTITSYNVYYTKLSSSGTQVQLQQSGPGLVKPSQTLSLTCAISGDSVSSNSATWNWIRQSPSRGLEWLGRTYYGSKWHSDYAVSVKSRITINPDTSKNQISLHLNPVTPEDTAVYYCARGRSYAFDIWDQGTMVTVSS
Take B13: the binding result in assay [2] is listed as “no binding”.

B14: H03 human minibody (scFv-human Fc) (Fc fusion)
scFv-Fc: SYELTQPPSVSVAPGQTARITCGGNNIGSKSVHWYQQKPGQAPVLVIYYDSDRPSGIPERFSGSNSGNTATLTISRVEAGDEADYYCQVWDSSSALYVFGTRTKVTVLSGGSTITSYNVYYTKLSSSGTQVQLVESGGGLVQPGRSLRLSCAASGFTFDDYAMHWVRQAPGKGLEWVSGISWNSGSIGYADSVKGRFTISRDNAKNSLYLQVNSLRAEDTAVYYCARELIVGTTSPQTDAFDIWGQGTMVTVSS
As to B14, in assay [1], the binding result is “no binding”.

B15: H03 rabbit minibody (scFv-rabbit Fc) (Fc fusion)
scFv-Fc: SYELTQPPSVSVAPGQTARITCGGNNIGSKSVHWYQQKPGQAPVLVIYYDSDRPSGIPERFSGSNSGNTATLTISRVEAGDEADYYCQVWDSSSALYVFGTRTKVTVLSGGSTITSYNVYYTKLSSSGTQVQLVESGGGLVQPGRSLRLSCAASGFTFDDYAMHWVRQAPGKGLEWVSGISWNSGSIGYADSVKGRFTISRDNAKNSLYLQVNSLRAEDTAVYYCARELIVGTTSPQTDAFDIWGQGTMVTVSS
As to B15, in assay [2], the binding result is listed as “no binding”.

B16: G07 human minibody (scFv-human Fc) (Fc fusion)
scFv-Fc: QSVLIQPPSASGTPGQRVTISCSGSNSNFGSNSVSWYQQRPGTAPKLLIEGNNQRPSGVPERFSGSKSGTSASLAISGLQSEDEAEYSCASWDDSLNAFVFGPGTKLTVLSGGSAITSYNVYYTKLSSSGTQVQLVQSGAEVKKPGESLKISCKGSGYSFTSYWIGWVRQMPGKGLEWMGIIYPGDSDIRYSPSFQGQVTISADKSFSSAYLQWSSLKASDTAMYYCARLGATGAFDIWGQGTTVTVSS
On to B16, for which the binding result in assay [1] is listed as “no binding”.

B17: G07 rabbit minibody (scFv-rabbit Fc) (Fc fusion)
scFv-Fc: QSVLIQPPSASGTPGQRVTISCSGSNSNFGSNSVSWYQQRPGTAPKLLIEGNNQRPSGVPERFSGSKSGTSASLAISGLQSEDEAEYSCASWDDSLNAFVFGPGTKLTVLSGGSAITSYNVYYTKLSSSGTQVQLVQSGAEVKKPGESLKISCKGSGYSFTSYWIGWVRQMPGKGLEWMGIIYPGDSDIRYSPSFQGQVTISADKSFSSAYLQWSSLKASDTAMYYCARLGATGAFDIWGQGTTVTVSS
For B17, the binding result in assay [2] is “no binding”.

B18: H01 rabbit minibody (scFv-rabbit Fc) (Fc fusion)
scFv-Fc: QPGLTQPPSVSLAPGQTARITCGGNNIGSKSVHWYQQKPGQAPVLVVYDDSDRPSGIPERFSGSNAGNTATLTISRVEAGDEADYYCQVWDSRSDQYVFGTRTKLTVLSGGSTITSYNVYYTKLSSSGAQVTLKESGPVLVKPTETLTLTCTVSGFSLSNARMGVSWIRQPPGKALEWLAHIFSNGEKSYSTSLKSRLTISKDTSKSQVVLTMTNMDPVDTATYYCARTLDYYDSSGYLVGGAFDIWGQGTMVTVSS
For the molecule B18, the binding result in assay [2] is reported as “no binding”.

B19: D07 rabbit minibody (scFv-rabbit Fc) (Fc fusion)
scFv-Fc: SYELTQPPSVSVAPGETARMTCGGNNIGTKGVHWYQQKPGQAPVLVVYDDSDRPSGIPERFSGSNAGNTATLTISRVEAGDEADYYCQVWDSRSDQYVFGTRTKLTVLSGGSTITSYNVYYTKLSSSGAQVTLKESGPVLVKPTETLTLTCTVSGFSLSNARMGVSWIRQPPGKALEWLAHIFSNGEKSYSTSLKSRLTISKDTSKSQVVLTMTNMDPVDTATYYCARTLDYYDSSGYLVGGAFDIWGQGTMVTVSS
On to B19, for which, in assay [2], the binding result is on record as “no binding”.
